Earlier results, collected in publication PMC6814268.

Assays:
[1] = target: CEACAM1 IgV (Homo sapiens) (UniProt P13688)
[2] = target: CEACAM5 IgV (Homo sapiens) (UniProt P06731)

Row | Kd [1] [nM] | Kd [2] [nM] | Substance
1 | 450 |  | CEACAM1 IgV (from UniProt P13688)
2 |  | 800 | CEACAM5 IgV (from UniProt P06731)
